Test results published in publication PMC4357722, “A novel endonuclease that may be responsible for damaged DNA base repair in Pyrococcus furiosus”.

Molecular target: T1, PfuEndoQ (PF1551) (Pyrococcus furiosus, UniProt Q8U0N5 1-424)
T1 sequence: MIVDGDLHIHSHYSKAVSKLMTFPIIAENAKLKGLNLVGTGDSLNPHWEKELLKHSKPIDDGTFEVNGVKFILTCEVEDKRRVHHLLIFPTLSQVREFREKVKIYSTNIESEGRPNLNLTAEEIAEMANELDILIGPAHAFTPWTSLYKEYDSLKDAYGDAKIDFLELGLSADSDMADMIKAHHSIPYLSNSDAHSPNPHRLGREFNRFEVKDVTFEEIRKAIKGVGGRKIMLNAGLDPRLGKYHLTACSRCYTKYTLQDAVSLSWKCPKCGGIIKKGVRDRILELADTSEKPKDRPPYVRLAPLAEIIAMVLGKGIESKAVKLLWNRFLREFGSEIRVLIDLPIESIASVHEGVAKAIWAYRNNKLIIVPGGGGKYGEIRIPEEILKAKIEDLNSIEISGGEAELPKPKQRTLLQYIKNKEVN
Test: EMSA; 1 mM Mg2+; 60 C; EMSA: 50 mM Tris-HCl pH 8.0, 1 mM MgCl2, 1 mM DTT, 0.01% Tween 20, 60 C 10 min, 5 nM DNA, 0-50 nM protein; 4% PAGE in TBE
Settings: protein: recombinant; tags: none (untagged; native stop codon in the reverse primer, pET21d); blunt

B1: 45N dsDNA (normal duplex) (dsDNA)
DNA 1: CGAACTGCCTGGAATCCTGACGACATGTAGCGAACGATCACCTCA
DNA 2: TGAGGTGATCGTTCGCTACATGTCGTCAGGATTCCAGGCAGTTCG
binding result: no binding
